Assay results published in patent publication US6699481B2, “Peptides for inhibition of herpes simplex virus entry” (priority 1998, dated 2004).
Bridge positions count the residues as written; N and C are the ends. Ends that are not written are not given here. * marks the point of attachment. Acm = CC(=O)NC*

Legend:
[1] = target: T1, HveA (200t) (Homo sapiens, UniProt Q92956); test: competition ELISA, gD-1(306t) binding with immobilized HveA (200t); conditions: for inhibitory effect upon binding of gD-1 with HveA: FIG. 4C; for inhibition of binding of soluble wild type gD-1(306t) with immobilized HveA (200t): peptide at 0.5 millimolar, FIG. 4A
T1 sequence (Q92956 39-202 limits assumed): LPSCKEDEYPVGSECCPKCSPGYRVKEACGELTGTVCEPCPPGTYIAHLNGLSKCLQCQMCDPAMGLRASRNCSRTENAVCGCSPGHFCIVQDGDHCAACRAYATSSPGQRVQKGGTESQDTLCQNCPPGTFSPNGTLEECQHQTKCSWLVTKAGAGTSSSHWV
Protocol: (§1) Several ELISAs were performed to analyze interaction among HveA, the isolated phage peptides, gD, and LT-α. In these assays, microtiter wells were coated for 2 hours at 22° C. with 40 nanograms of HveA(200t), human factor H, trout complement C3, BSA, milk, or ovalbumin. Nonspecific binding in the wells was blocked using PBS containing 1% (w/v) BSA for 1 hour at 22° C. For competition assays, serial dilutions of gD-1 (306t), gD-1 (Δ290-299t), BSA, peptide BP-1, BP-2, or an unrelated cyclic peptide having the amino acid sequence ICVVQDWGHHRCT (SEQ ID NO:3) was added to each well. After 30 minutes of incubation at 22° C., recombinant protein (i.e., gD-1 (306t) at 0.4 microgram per milliliter, gD-1 (Δ290-299t) at 0.1 microgram per milliliter, or LT-α at 20 nanomolar), or phage supernatant was added to the well, and the samples were incubated for 1 hour. The wells were washed twice with PBS containing 0.05% (v/v) Tween-20 and incubated for one hour at 22° C. with at least one of the following: (i) a 1:1000 dilution of a peroxidase-labeled anti-M13 antibody, (ii) a 1:400 dilution of an anti-gD polyclonal antibody (R7), or (iii) an anti-LT-α monoclonal antibody (AG9).
(§2) Following incubation with the antibody, the wells were washed twice with PBS containing 0.05% (v/v) Tween-20 and incubated for 30 minutes at 22° C. with a 1:1000 dilution of a peroxidase-conjugated goat anti-rabbit immunoglobulin G (for polyclonal antibody detection) or with goat anti-mouse immunoglobulin G (for monoclonal antibody detection; Bio-Rad Laboratories, Richmond, Calif.). Color was developed by adding 2,2′-azino-di-(3-ethylbenzthiazolinesulfonate) (ABTS, Boehringer-Mannheim, Indianapolis, Ind.) and 0.5% (v/v) hydrogen peroxide. Absorbance was assessed at 405 nanometers. Net gD-1 or LT-α binding was calculated by subtracting the amount of secondary antibody bound with HveA from the amount of ligand bound with HveA.

[2] = system: HSV-1 entry into CHO-HveA cells; test: HSV entry assay, CHO-HveA cells (β-galactosidase reporter virus KOS-hrR3); type: cell-based; conditions: FIG. 7A
Protocol: (§3) CHO-HveA, CHO-HveC, and Vero cells were plated on 96-well dishes and incubated overnight. The cells were chilled at 4° C. for 10, minutes and then the medium was replaced with Ham's F-12 (CHO-HveA and CHO-HveC cells) or with Dulbecco's modified Eagle medium (DMEM) (Vero cells). These media were supplemented with 10% (v/v) bovine fetal serum and 10 millimolar HEPES, containing various concentrations of peptide, which had been previously filtered through a 0.2 micrometer pore size filter (Corning Glass Works, Corning, N.Y.). The plates were rocked at 4° C. for 90 minutes, at which time KOS-hrR3 virus (5×10^5 PFU/well) was added. The plates were rocked at 4° C. for 90 additional minutes and then incubated at 37° C. for 5 hours. Cells were lysed using 20% (v/v) Nonidet P-40 and β-galactosidase substrate (o-nitrophenyl-β-D-glucopyranoside) was added to each well. β-galactosidase activity was measured at selected time points using a Specromax 250 enzyme-linked immunosorbent assay (ELISA) reader.
Inhibition of gD-1 binding with HveA mediated by BP-2, as indicated in FIGS. 4A-4C, raised the question of whether this peptide has a blocking effect on viral entry into mammalian cells. To test this possibility, the effect of BP-2 and related peptides (i.e., BP-1, BP-2 (3, 9 Ala), scrambled BP-2, control peptide, and gD-1(Δ290-299t)) on HSV-1 entry into CHO cells expressing either HveA (CHO-HveA cells), or HveC (CHO-HveC cells), and into Vero cells was examined. Cell monolayers were incubated with increasing concentrations of peptide at 4° C. for 90 minutes. Following incubation, the cells were infected with the β-galactosidase reporter virus, KOS-hrR3. The results of these experiments are depicted in FIGS. 7A and 7B.

[3] = system: HSV entry into Vero cells; test: HSV entry assay, Vero cells; type: cell-based, HSV-1; conditions: KOS-hrR3 virus; FIG. 7B
Protocol: as §3
(§4) Inhibition of gD-1 binding with HveA mediated by BP-2, as indicated in FIGS. 4A-4C, raised the question of whether this peptide has a blocking effect on viral entry into mammalian cells. […]

[4] = target: T1, HveA (200t); test: competition ELISA, binding of phage displaying BP-1 or BP-2 with HveA
Protocol: as §1, §2
The results of these experiments are depicted in FIG. 1A.

[5] = system: HSV entry into CHO-HveC cells; test: HSV entry assay, CHO-HveC cells; type: cell-based, HSV-1; conditions: KOS-hrR3 virus
Protocol: as §3, §4

[6] = target: T2, HveA (200t) (Homo sapiens, UniProt Q92956); test: competition ELISA, gD-1 (Δ290-299t) binding with HveA; conditions: FIG. 4B
T2 sequence (Q92956 39-200): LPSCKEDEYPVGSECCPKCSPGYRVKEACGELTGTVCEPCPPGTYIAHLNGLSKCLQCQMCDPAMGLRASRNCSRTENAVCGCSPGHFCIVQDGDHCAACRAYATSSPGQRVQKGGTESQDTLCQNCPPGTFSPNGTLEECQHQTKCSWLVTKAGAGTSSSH
Protocol: Several ELISAs were performed to analyze interaction among HveA, the isolated phage peptides, gD, and LT-α. In these assays, microtiter wells were coated for 2 hours at 22° C. with 40 nanograms of HveA(200t), human factor H, trout complement C3, BSA, milk, or ovalbumin. Nonspecific binding in the wells was blocked using PBS containing 1% (w/v) BSA for 1 hour at 22° C. For competition assays, serial dilutions of gD-1 (306t), gD-1 (Δ290-299t), BSA, peptide BP-1, BP-2, or an unrelated cyclic peptide having the amino acid sequence ICVVQDWGHHRCT (SEQ ID NO:3) was added to each well. […]
Following incubation with the antibody, the wells were washed twice with PBS containing 0.05% (v/v) Tween-20 and incubated for 30 minutes at 22° C. with a 1:1000 dilution of a peroxidase-conjugated goat anti-rabbit immunoglobulin G (for polyclonal antibody detection) or with goat anti-mouse immunoglobulin G (for monoclonal antibody detection; Bio-Rad Laboratories, Richmond, Calif.). […] Absorbance was assessed at 405 nanometers. Net gD-1 or LT-α binding was calculated by subtracting the amount of secondary antibody bound with HveA from the amount of ligand bound with HveA.

BP-1 (4, 10 Acm): linear BP-1 peptide generated by reduction and alkylation of the 26-mer peptide, SEQ ID NO:1 (SISC(Acm)SRGLVC(Acm)LLPRLTNESGNDRFDS)
inhibitory effect upon binding of gD-1 with HveA [1]: no inhibitory effect

BP-1: cyclic 26-residue HveA-binding peptide, SEQ ID NO:4, from the 27-mer phage library (SISCSRGLVCLLPRLTNESGNDRFDS; disulfide 4-10 (inferred))
blocking of HSV-1 entry into CHO-HveA cells [2]: neither BP-1 nor any of the BP-2 analogs blocked virus entry
inhibition of binding of soluble wild type gD-1(306t) with immobilized HveA (200t) [1]: 20%
effect on HSV entry into Vero cells [3]: Neither BP-1 or BP-2 had any effect
inhibition of binding of phage displaying BP-2 to HveA ([4]; FIG. 3A): vice versa
effect on HSV entry into CHO-HveC cells [5]: Neither BP-1 or BP-2 had any effect

BP-2 (3, 9 Ala): linear form of BP-2 generated by substitution of the cysteine residues with alanine, SEQ ID NO:2 (GSADGFRVAYMH; Peptide corresponds to BP-2 (3,9 Ala))
inhibitory effect upon binding of gD-1 with HveA [1]: no inhibitory effect

BP-2: cyclic 12-residue HveA-binding peptide, SEQ ID NO:5, from the 12-mer phage library (GSCDGFRVCYMH; disulfide 3-9 (inferred))
inhibition of binding of gD-1 (Δ290-299t) with HveA [6]: 40%
blocking of HSV-1 entry into CHO-HveA cells [2]: blocked entry
inhibition of binding of soluble wild type gD-1(306t) with immobilized HveA (200t) [1]: 80%
effect on HSV entry into Vero cells [3]: Neither BP-1 or BP-2 had any effect
inhibition of binding of phage displaying BP-1 to HveA ([4]; FIG. 3B): inhibited
effect on HSV entry into CHO-HveC cells [5]: Neither BP-1 or BP-2 had any effect

ICVVQDWGHHRCT [cyclic control peptide, reference compound]
inhibitory effect upon binding of gD-1 with HveA [1]: no inhibitory effect

scrambled sequence BP-2: scrambled primary sequence of the parental cyclic BP-2, maintaining the position of the two cysteines, SEQ ID NO:6 (YMCRFVDGCHGS; disulfide 3-9 (inferred))
inhibitory effect upon binding of gD-1 with HveA [1]: no inhibitory effect

B1: gD-1 (306t): soluble wild type HSV glycoprotein D, from recombinant baculovirus-infected cells (protein)
chain: KYALVDASLKMADPNRFRGKDLPVLDQLTDPPGVRRVYHIQAGLPDPFQPPSLPITVYYAVLERACRSVLLNAPSEAPQIVRGASEDVRKQPYNLTIAWFRMGGNCAIPITVMEYTECSYNKSLGACPIRTQPRWNYYDSFSAVSEDNLGFLMHAPAFETAGTYLRLVKINDWTEITQFILEHRAKGSCKYALPLRIPPSACLSPQAYQQGVTVDSIGMLPRFIPENQRTVAVYSLKIAGWHGPKAPYTSTLLPPELSETPNATQPELAPEDPEDSALLEDPVGTVAPQIPPNWHIPSIQDAATPY
modifications: left off: small tags and cut ends
notes: soluble wild type HSV glycoprotein D, from recombinant baculovirus-infected cells
blocking of HSV-1 entry into CHO-HveA cells [2]: failed to do so
inhibition of HveA-binding phage clones binding with HveA (200t) ([4]; fluid-phase soluble competitor, FIG. 1A): significantly inhibited
